The source of these data is JP2023110925A (dated 2023).

This experiment deals with T1, アミロイドβ (antigen of the amyloid β ELISA) (UniProt P05067 672-713).
T1 construct: also called Aβ
Description: amyloid β ELISA, conditioned medium of transient transfection. In general terms: ELISA stands for enzyme-linked immunosorbent assay.

T1 sequence (P05067 672-713): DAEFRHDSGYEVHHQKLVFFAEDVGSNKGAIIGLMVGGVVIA

B1: C2 HuVH AF バージョン3 + キメラC2カッパ鎖 (transient) (antibody, name in Kabat numbering, V domains shown)
VH: EVQLVESGGGLVQPGGSLRLSCAASGFTFSSYGMSWVRQAPGKGLELVASINSNGGSTYYPDSVKGRFTISRDNAKNSLYLQMNSLRAEDTAVYYCARGDYWGQGTTVTVSS
VL: DVVMTQTPLSLPVSLGDQASISCRSSQSLVYSNGDTYLHWYLQKPGQSPKLLIYKVSNRFSGVPDRFSGSGSGTDFTLKISRVEAEDLGVYFCSQSTHVPWTFGGGTKLEIK
notes: Transient expression
As for B1, the binding result was “no binding”.
